{"source": "patent US7422849B1", "about": "“Method for determining expression of a PI3 kinase gene” (Ludwig Institute for Cancer Research, priority 1992, dated 2008)", "molecules": {"B1": {"name": "amino acids 19-110 of human p10: domain of human p110, amino acids 19-110, from deletion mutants of p110-N (protein, UniProt P42336 19-110, looked up, fragment)", "chain": "RILVECLLPNGMIVTLECLREATLITIKHELFKEARKYPLHQLLQDESSYIFVSVTQEAEREEFFDETRRLCDLRLFQPFLKVIEPVGNREE"}, "B2": {"name": "human p110 19-110 with a further 20 amino acids removed from the amino terminus (other)", "chain": "EATLITIKHELFKEARKYPLHQLLQDESSYIFVSVTQEAEREEFFDETRRLCDLRLFQPFLKVIEPVGNREE", "notes": "Limits 39-110 are calculated from 'Removal of a further 20 amino acids'"}, "B3": {"name": "p110-N: GST fusion of human p110 fragment αα1-128 (protein)", "chain": "MPPRPSSGELWGIHLMPPRILVECLLPNGMIVTLECLREATLITIKHELFKEARKYPLHQLLQDESSYIFVSVTQEAEREEFFDETRRLCDLRLFQPFLKVIEPVGNREEKILNREIGFAIGMPVCEF", "modifications": "left off: a dimerising Fc or GST"}, "B4": {"name": "human p110 19-110 with a further 20 amino acids removed from the carboxy terminus (other)", "chain": "RILVECLLPNGMIVTLECLREATLITIKHELFKEARKYPLHQLLQDESSYIFVSVTQEAEREEFFDETRRLC", "notes": "Limits 19-90 are calculated from 'Removal of a further 20 amino acids'"}}, "key": {"[1]": {"biological_target": "Y751 phosphopeptide", "experiment": "phosphopeptide affinity resin, single incubation; PI3-kinase assay"}, "[2]": {"experiment": "PI3-kinase assay on immunoprecipitates from baculovirus infected Sf9 cells", "type": "biochemical", "conditions": "expressed in Sf9 cells", "description": "(§1) The assay for PI3-kinase activity was carried out as described by Whitman et al. (1985).\nTo clone the p110 coding region into the baculovirus transfer vector p36C (Page, 1989) a Sau 3A1 site (GGATCA) present 10 nucleotides upstream from the initiation codon (see FIG. 9) was changed to a BamHI (GGATCC site by PCR mediated mutagenesis. Briefly, a sense oligonucleotide substituting C for A at position 6 of the Sau3A1 site was used in a PCR reaction with an antisense primer comprising nucleotides (102-124) of the p110 sequence. (see FIG. 9) using Vent polymerase (New England Biolabs). Template DNA was random-primed first strand cDNA prepared from SGBAF-1 cell mRNA as described above; PCR conditions: 94° C. 1 min, 50° C. 1 min, 72° C. 2 min, 35 cycles. The PCR product was digested with BamHl-EcoNl and a 118 bp fragment isolated from a low melting point agarose gel. […] The BamHl-EcoNl fragment of p110/(BamHl) was sequenced and found to agree with that previously determined. […] Cells were harvested and lysed 2 days post-infection in EB lysis buffer (20 mM Tris-HCl (pH 7.4), 50 mM NaCl, 50 mM NaF, 1% NP40, 1 mM EDTA, 500 μM sodium orthovanadate, 2 mM PMSF, 100 Kallikrein inhibitor units of Aprotinin ml^−1) (Kazlauskas and Cooper, 1989) and lysates were analysed by […]."}, "[3]": {"experiment": "PI3-kinase assay on immunoprecipitates from transfected COS-1 cells", "type": "biochemical", "conditions": "anti-p110 antiserum", "description": "as §1\nFor transient expression of p85α in COS-1 cells the coding region for p85α was cloned into the adenovirus late promoter based expression vector pMT2 (Kaufman et al, 1989) as previously described (Otsu et al, 1991). For expression of the p110 cDNA plasmid pSG5-p110 was constructed as follows. The 3.4 kb BamHl-HindIII fragment from cDNA p2.1 was ligated into pSG5 (Stratagene) cut with BamHl and BglII, the HindIII and BglII overhangs of p2.1 and pSG5 respectively, being filled in with Klenow polymerase. This gave construct pSG5.2. Plasmid pBS/race (above) was digested with EcoRl and Hindlll, the 350 bp band gel purified by electroelution (Maniatis et al, 1982) and further digested with Sau3Al and Bsml. This mixture was then added to the gel purified Bsml-BstMl fragment from p2.1 and ligated in a three fragment ligation to pSG5.2 digested with BamHl and BstXl. […] Lysates were analysed by immunoprecipitation with anti-p85α polyclonal antiserum or with anti-p110 C-terminal peptide antiserum. Immunocomplexes collected on Protein A-Sepharose beads were analysed either on 10% SDS-PAGE gels followed by autoradiography or subjected to in vitro PI3-kinase assays as described."}, "[4]": {"biological_target": "T1, CSF-1 receptor (Homo sapiens, UniProt P07333)", "T1 construct": "made in house; host or cells: Sf9 insect cells (baculovirus)", "T1 sequence (P07333 20-972)": "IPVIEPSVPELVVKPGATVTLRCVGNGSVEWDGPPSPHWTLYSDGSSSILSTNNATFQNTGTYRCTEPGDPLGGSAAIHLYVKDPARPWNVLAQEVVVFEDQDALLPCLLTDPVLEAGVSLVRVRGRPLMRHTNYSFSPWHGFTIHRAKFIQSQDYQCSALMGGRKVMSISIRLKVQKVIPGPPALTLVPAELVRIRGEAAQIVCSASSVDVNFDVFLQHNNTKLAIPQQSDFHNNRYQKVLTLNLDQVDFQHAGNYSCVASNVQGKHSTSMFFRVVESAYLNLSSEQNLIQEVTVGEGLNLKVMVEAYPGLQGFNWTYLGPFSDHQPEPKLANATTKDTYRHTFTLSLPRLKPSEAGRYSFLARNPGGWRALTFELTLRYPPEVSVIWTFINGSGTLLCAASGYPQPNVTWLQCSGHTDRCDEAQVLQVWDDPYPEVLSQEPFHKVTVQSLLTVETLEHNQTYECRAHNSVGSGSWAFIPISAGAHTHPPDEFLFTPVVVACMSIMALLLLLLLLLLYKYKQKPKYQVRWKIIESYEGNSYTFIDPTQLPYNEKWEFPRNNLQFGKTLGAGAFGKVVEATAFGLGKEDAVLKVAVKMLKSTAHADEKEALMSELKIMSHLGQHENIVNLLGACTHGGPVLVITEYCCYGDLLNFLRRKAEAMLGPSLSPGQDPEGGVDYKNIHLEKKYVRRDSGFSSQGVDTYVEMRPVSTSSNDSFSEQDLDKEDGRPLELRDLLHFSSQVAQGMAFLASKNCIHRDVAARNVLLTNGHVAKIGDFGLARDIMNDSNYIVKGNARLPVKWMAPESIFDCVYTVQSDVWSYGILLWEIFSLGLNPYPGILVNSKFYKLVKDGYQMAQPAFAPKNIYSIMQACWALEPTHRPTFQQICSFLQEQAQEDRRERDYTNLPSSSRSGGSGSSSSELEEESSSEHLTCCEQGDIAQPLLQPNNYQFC", "experiment": "In vitro association of PI3-kinase activity with the CSF-1 receptor", "type": "binding", "conditions": "Sf9 cell lysates, receptor phosphorylated with ATP before incubation", "description": "This assay was performed essentially as described by Kazlauskas and Cooper (1990). Sf9 cells were infected as already described and lysed 48 h post-infection in EB lysis buffer. CSF-1 receptor was immunoprecipitated from Sf9 cells and collected on Protein A-Sepharose beads. The immunocomplex was then subjected to extensive washing (3 times with EB lysis buffer, twice with kinase buffer; 50 mM HEPES (pH 7.4), 150 mM NaCl, 0.02% Triton X-100, 12 mM MgCl2, 2 mM MnCl2, 10% glycerol, 500 μM sodium orthovanadate) and the receptor phosphorylated for 15 min at 20° C. with ATP. The precipitates were then washed again to remove free ATP and incubated for 2 h at 4° C. with cell lysates prepared from Sf9 cells infected with viruses expressing (i) p85α, (ii) p110 or (iii) co-infected with viruses expressing p85α and p110. The immune complexes were washed and assayed for associated PI3-kinase activity."}, "[5]": {"biological_target": "T2, p85α (Bos taurus, UniProt P23727)", "T2 sequence (P23727 whole entry)": "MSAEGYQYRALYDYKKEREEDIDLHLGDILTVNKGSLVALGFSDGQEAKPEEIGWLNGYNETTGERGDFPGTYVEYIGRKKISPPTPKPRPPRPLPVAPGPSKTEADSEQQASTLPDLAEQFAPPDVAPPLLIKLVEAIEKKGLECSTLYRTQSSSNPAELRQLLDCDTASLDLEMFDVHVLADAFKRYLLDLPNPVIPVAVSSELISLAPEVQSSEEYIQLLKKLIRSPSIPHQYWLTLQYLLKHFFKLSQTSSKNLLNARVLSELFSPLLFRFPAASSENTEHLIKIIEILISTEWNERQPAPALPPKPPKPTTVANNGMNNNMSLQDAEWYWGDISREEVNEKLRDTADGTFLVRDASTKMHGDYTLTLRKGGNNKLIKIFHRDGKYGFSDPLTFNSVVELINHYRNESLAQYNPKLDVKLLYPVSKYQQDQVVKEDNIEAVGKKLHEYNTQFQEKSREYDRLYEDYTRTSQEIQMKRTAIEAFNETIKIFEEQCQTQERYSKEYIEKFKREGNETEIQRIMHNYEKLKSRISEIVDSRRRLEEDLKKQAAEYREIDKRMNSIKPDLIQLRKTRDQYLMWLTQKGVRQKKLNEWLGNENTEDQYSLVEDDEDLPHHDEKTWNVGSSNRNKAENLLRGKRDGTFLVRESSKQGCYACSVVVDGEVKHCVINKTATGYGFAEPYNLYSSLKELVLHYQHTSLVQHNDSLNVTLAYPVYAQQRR", "experiment": "Binding of baculovirus expressed p85α to peptide columns", "set-up": "made in house; host or cells: Sf9 insect cells (baculovirus pAcC4-p85α); species or system bovine", "description": "(§2) Proteins were diluted in binding buffer (50 mM phosphate buffer (pH 7.2), 150 mM NaCl, 0.02% Triton X-100, 2 mM EDTA and 200 μM sodium orthovanadate), mixed with the appropriate peptide affinity resin and then allowed to bind for 2 h at 4° C. with rotation. The column material was washed repeatedly (>6×) with 50 column volumes of the same buffer and then with various elution buffers containing NaCl, urea or detergents. Bound proteins were either assayed for PI3-kinase activity or were removed from the column by boiling in SDS-PAGE sample buffer and then analysed by SDS-PAGE.\nBaculovirus expressed bovine p85α and p85β were chosen to test these columns (Otsu et al, 1991)."}, "[6]": {"biological_target": "T3, bovine brain PI3-kinase (Bos taurus, UniProt P23727)", "T3 construct": "P13-kinase purified from bovine brain is a complex of p85α and p10; from tissue; host or cells: bovine brain", "T3 sequence (P23727 whole entry)": "as above", "T3 sequence (P32871 whole entry partner)": "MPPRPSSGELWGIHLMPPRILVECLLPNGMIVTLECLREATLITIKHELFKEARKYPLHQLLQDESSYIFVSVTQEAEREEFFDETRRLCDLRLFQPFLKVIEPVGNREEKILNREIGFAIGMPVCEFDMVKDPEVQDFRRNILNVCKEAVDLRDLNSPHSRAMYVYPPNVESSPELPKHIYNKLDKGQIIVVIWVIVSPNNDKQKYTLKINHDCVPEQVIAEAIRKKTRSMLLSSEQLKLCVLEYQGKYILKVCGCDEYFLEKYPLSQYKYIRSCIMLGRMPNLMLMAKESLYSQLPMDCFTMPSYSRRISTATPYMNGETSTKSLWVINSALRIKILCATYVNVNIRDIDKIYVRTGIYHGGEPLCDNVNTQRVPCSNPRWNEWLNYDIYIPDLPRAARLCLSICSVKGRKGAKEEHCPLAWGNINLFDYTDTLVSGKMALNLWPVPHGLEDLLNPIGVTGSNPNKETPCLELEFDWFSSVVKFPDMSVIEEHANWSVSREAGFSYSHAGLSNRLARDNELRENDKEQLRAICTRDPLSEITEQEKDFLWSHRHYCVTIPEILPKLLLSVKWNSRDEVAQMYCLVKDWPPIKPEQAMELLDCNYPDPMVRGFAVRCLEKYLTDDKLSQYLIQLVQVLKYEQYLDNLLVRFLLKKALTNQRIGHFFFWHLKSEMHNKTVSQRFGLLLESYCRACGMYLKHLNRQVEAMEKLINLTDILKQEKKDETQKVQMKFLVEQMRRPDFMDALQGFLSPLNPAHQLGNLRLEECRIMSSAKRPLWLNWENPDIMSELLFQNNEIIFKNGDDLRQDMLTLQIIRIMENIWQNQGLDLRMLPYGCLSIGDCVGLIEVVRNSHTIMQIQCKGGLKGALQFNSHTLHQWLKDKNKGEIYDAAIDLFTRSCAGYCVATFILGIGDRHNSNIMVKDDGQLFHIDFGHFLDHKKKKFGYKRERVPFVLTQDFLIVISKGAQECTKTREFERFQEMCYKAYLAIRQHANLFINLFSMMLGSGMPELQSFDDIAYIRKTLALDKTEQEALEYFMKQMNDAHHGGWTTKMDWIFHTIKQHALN", "experiment": "Binding of partially purified bovine brain PI3-kinase to peptide affinity columns", "description": "as §2"}, "[7]": {"biological_target": "T2, p85α", "experiment": "Retention of p85α by GST-p110 fragments on glutathione sepharose column", "type": "binding", "set-up": "made in house; host or cells: baculovirus / insect cells", "conditions": "GST fusion protein expressed in bacteria", "excerpt": "(§3) The interation of the p85 and p110 subunits of PI3-kinase are thought to be required for the activity of the kinase in mammalian cells. Thus inhibiting the interaction between the subunits could provide a means of inhibiting the activity of this signal transduction pathway. In order to design reagents to p110 which will block the interaction, it is useful to define the region of […] which binds to the p85 subunits. To do this a series of mutants were constructed which express various domains of the […] protein (FIG. 23B). These fragments were expressed as GST fusion proteins in bacteria. The proteins were then bound to a glutathione sepharose column (Pharmicia) according to the manufacturer's instructions (Panayotou G et al (1992) Embo J 11:4261-4272). The ability of these protein fragments to bind the p85 subunits was assessed by the ability of the column specifically to retain p85 subunits purified from baculovirus (Otsu et al (1991) Cell 65:91-104). […] To further characterise the binding domain, deletion mutants and PCR fragments were made from the p110-N fragment as shown in FIG. 24. […] Removal of a further 20 amino acids from either the amino or carboxy termini led to loss of binding activity. Now that this domain has been identified it allows the design of specific peptides, antibodies or small molecules which can inhibit the interaction between the subunits."}, "[8]": {"biological_target": "T4, p85β (Bos taurus, UniProt P23726)", "T4 construct": "made in house; host or cells: baculovirus / insect cells", "T4 sequence (P23726 whole entry, the tested form may be a part)": "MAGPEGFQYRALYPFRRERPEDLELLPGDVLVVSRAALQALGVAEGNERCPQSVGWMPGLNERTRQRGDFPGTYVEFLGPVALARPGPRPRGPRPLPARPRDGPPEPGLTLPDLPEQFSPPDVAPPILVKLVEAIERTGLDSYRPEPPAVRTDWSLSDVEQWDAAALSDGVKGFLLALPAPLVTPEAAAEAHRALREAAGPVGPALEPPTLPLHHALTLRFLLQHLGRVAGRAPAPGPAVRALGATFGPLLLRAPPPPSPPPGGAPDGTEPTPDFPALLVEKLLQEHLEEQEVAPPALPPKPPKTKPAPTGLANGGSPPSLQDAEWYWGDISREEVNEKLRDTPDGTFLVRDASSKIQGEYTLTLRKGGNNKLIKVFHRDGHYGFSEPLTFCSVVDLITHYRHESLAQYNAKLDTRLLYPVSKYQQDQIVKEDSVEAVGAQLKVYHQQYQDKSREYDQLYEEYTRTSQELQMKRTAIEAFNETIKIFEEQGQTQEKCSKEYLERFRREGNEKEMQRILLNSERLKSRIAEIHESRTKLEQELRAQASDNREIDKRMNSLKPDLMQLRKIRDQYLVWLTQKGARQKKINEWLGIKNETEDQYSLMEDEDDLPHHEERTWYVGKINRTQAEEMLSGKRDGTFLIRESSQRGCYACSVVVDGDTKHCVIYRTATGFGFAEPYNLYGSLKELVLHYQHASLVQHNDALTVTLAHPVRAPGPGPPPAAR", "experiment": "Retention of p85β by GST-p110 fragments on glutathione sepharose column", "type": "binding", "conditions": "GST fusion protein expressed in bacteria", "excerpt": "as §3"}, "[9]": {"biological_target": "T5, bovine p85β (bovine, UniProt P23726 1-724)", "T5 construct": "Expressed by baculovirus in Sf9 cells or in COS-1 cells; also called baculovirus expressed p85β", "T5 sequence (P23726 whole entry, the tested form may be a part)": "as above", "experiment": "deletion mutants and PCR fragments of p110-N; retention of p85", "excerpt": "as §3"}, "[10]": {"biological_target": "T6, bovine p85α (bovine, UniProt P23727 1-724)", "T6 construct": "Expressed by baculovirus in Sf9 cells or from pMT2-p85α in COS-1 cells, or native from bovine brain; which one is said under assay; also called 85 kD subunit; baculovirus expressed p85α", "T6 sequence (P23727 whole entry, the tested form may be a part)": "as the sequence (P23727 whole entry) above", "experiment": "deletion mutants and PCR fragments of p110-N; retention of p85", "excerpt": "as §3"}}, "note": "Where two headings read alike, the source gives them in different places.", "data": [{"molecule": "partially purified bovine brain PI3-kinase (p85α/p110 complex) (from UniProt P23727 2-724; P32871 1-1068) (enzyme)", "values": [{"measurement": "PI3-kinase activity removed by the column", "setting": "[1]", "result": "> 90", "unit": "%"}]}, {"molecule": "p110: bovine PI3-kinase 110 kD subunit, 1068 amino acids, calculated molecular mass 124,247", "values": [{"measurement": "PI3-kinase activity of immunoprecipitates", "setting": "[2]", "result": "significant levels of PI3-kinase activity"}, {"measurement": "PI3-kinase activity of anti-p110 immunoprecipitates", "setting": "[3]", "result": "no activity above that present in control immunoprecipitates"}, {"measurement": "association of PI3-kinase activity with CSF-1 receptor", "setting": "[4]", "result": "No PI3-kinase activity associates"}]}, {"molecule": "p85α: 85 kD subunit of PI3-kinase, baculovirus expressed", "values": [{"measurement": "PI3-kinase activity of immunoprecipitates", "setting": "[2]", "result": "inactive"}, {"measurement": "association of PI3-kinase activity with CSF-1 receptor", "setting": "[4]", "result": "No PI3-kinase activity associates"}]}, {"molecule": "A R D I M R D S N Y I S K G S T F (ARDIMRDSNYISKGSTF) [Peptide Y587, 17 amino acid phosphopeptide around the second major tyrosine phosphorylation site in the PDGF β-receptor]", "values": [{"measurement": "binding of baculovirus expressed p85α to the peptide column", "setting": "[5]; Sf9 cell lysate, SDS-PAGE of bound proteins", "result": "bind both columns to a similar extent"}]}, {"molecule": "D M S K D E S V D Y V P M L D M K [Y751 phosphopeptide]", "values": [{"measurement": "binding of baculovirus expressed p85α to the peptide column", "setting": "[5]", "result": "bind both columns to a similar extent"}, {"measurement": "PI3-kinase activity removed from Mono Q peaks 1 or peak 2 by the column", "setting": "[6]", "result": "> 90", "unit": "%"}]}, {"molecule": "B1", "values": [{"measurement": "ability of p110 fragment to bind p85α subunit", "setting": "[7]", "result": "sufficient to associate with the p85 subunits"}, {"measurement": "ability of p110 fragment to bind p85β subunit", "setting": "[8]", "result": "sufficient to associate with the p85 subunits"}]}, {"molecule": "B2", "values": [{"measurement": "binding result", "setting": "[9]", "result": "no binding"}, {"measurement": "binding result", "setting": "[10]", "result": "no binding"}]}, {"molecule": "B3", "values": [{"measurement": "ability of p110 fragment to bind p85α subunit", "setting": "[7]", "result": "capable of binding"}, {"measurement": "ability of p110 fragment to bind p85β subunit", "setting": "[8]", "result": "capable of binding"}]}, {"molecule": "B4", "values": [{"measurement": "binding result", "setting": "[9]", "result": "no binding"}, {"measurement": "binding result", "setting": "[10]", "result": "no binding"}]}]}
